The EC50 is the concentration that produces a half-maximal response.

Residue numbers refer to the chain shown, from its start.

Here are results for two molecules from US20100150950A1, “HUMAN ANTIBODIES THAT BIND CD70 AND USES THEREOF” (Medarex, Inc., priority 2006, published 2010).

Experiment [1] has as its target T1, human CD70 expressed on the cell surface (human, UniProt P32970 1-193).
T1 construct: also called full length CD70 on transfected CHO cells
T1 sequence: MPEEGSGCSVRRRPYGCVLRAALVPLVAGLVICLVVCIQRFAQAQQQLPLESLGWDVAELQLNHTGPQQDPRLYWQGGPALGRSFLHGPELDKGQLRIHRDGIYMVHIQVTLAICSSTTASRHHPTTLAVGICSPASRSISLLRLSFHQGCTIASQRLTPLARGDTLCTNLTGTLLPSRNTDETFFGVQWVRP
As to the kind of experiment: flow cytometry on 786-O cells, MFI. The method, then:
Binding of the anti-CD70 human monoclonal antibodies was assessed by incubating 5×10⁵ cells with antibody at a starting concentration of 10 μg/ml and serially diluting the antibody at a 1:3 dilution. The cells were washed and binding was detected with a PE-labeled anti-human IgG Ab. Flow cytometric analyses were performed using a FACSCalibur flow cytometry (Becton Dickinson, San Jose, Calif.).
(In flow cytometry, cells or beads pass a laser one at a time.)

In experiment [2] the target is T2, CD70+ renal carcinoma 786-O cells (Homo sapiens, UniProt P32970).
T2 construct: natively expressing CD70+ human cancer cell line 786-0 cells; endogenous in cells; host or cells: 786-O (ATCC CRL-1932), A-498 (HTB-44), ACHN (CRL-1611), Caki-1 (HTB-46), Caki-2 (HTB-47)
T2 sequence (P32970 1-193): T1 sequence
As to the kind of experiment: Blocking of mouse anti-CD70 antibody BU-69 binding. The following applies: BU-69 1 μg/ml; 69A7 1, 5 or 10 μg/ml. The method, then: In this experiment, the HuMAb anti-CD70 antibody 69A7 was tested for its ability to block binding of a known mouse anti-CD70 antibody to CD70+renal carcinoma 786-O cells. 786-O cells were incubated with the mouse anti-CD70 antibody BU-69 (Ancell, Bayport, Minn.) at 1 μg/ml and the HuMAb 69A7 at 1, 5 or 10 μg/ml for 20 minutes on ice. IgG1 and IgG2 isotype control antibodies were used as negative controls. The cells were washed twice and binding was detected with a FITC-labeled anti-human IgG Ab. Flow cytometric analyses were performed using a FACSCalibur flow cytometry (Becton Dickinson, San Jose, Calif.).

In a further experiment the test system is IM-9 cells. As to the kind of experiment: ADCC fluorescence cytotoxicity assay, IM-9. Format: cell-based, human. To be noted: target to effector ratio 1:50. The method, then: (§1) In this example, a defucosylated and non-defucosylated anti-CD70 monoclonal antibody was tested for the ability to kill CD70+cells in the presence of effector cells via antibody dependent cellular cytotoxicity (ADCC) in a fluorescence cytotoxicity assay
(§2) Human Anti-CD70 monoclonal antibody 2H5 was defucosylated as described above. Human effector cells were prepared from whole blood as follows. Human peripheral blood mononuclear cells were purified from heparinized whole blood by standard Ficoll-paque separation. The cells were resuspended in RPMI1640 media containing 10% FBS (culture media) and 200 U/ml of human IL-2 and incubated overnight at 37° C. The following day, the cells were collected and washed once in culture media and resuspended at 2×10^7 cells/ml. […]
(§3) The CD70+ cell lines ARH-77 (human B lymphoblast leukemia; ATCC Accession No. CRL-1621), MEC-1 (human chronic B cell leukemia; DSMZ Accession No. ACC 497), SU-DHL-6 (human B cell lymphoma, DSMZ Accession No. Acc572), IM-9 (human B lymphoblast; ATCC Accession No. CCL-159) and HuT 78 (human cutaneous lymphocyte lymphoma; ATCC Accession No. TIB-161), were tested for antibody specific ADCC to the defucosylated and non-defucosylated human anti-CD70 monoclonal antibody 2H5 using the Delfia fluorescence emission analysis as follows. […]

The test system of the next experiment is activated human B cells. As to the kind of experiment: Binding to and ADCC of activated human B cells (51Cr). Format: cell-based. As to the method:
In this study, a HuMAb anti-CD70 antibody and the nonfucosylated form were tested for their ability to mediate ADCC effects on human B cells. Frozen human spleen cells were thawed and B cells were negatively purified by magnetic beads. Purified B cells were cultured at 2×10^6/ml in RPMI+10% FBS supplemented with NEAA, sodium pyruvate, β-ME and penicillin/streptomycin. B cells were activated by 10 μg/ml of LPS and 5 μg/ml anti-CD40 for 3 days. The cells were harvested, washed and an aliquot was stained with biotin conjugated nonfucosylated 2H5 (2H5 NF-bio)+streptavidin-APC. Human peripheral blood mononuclear effector cells were purified from heparinized whole blood by standard Ficoll-Paque separation and cultured overnight in of 50 U/ml IL-2. The activated B cells were labeled with 100 μCi of Na2 ^51CrO4 (Perkin Elmer, Wellesley, Mass.) per 1×10^6 cells for 1 hour. Effector cells were added to labeled target cells at a ratio of […] in the presence of serial dilutions of 2H5 and 2H5 NF (non-fucosylated). In addition, the test articles were assayed at 10 μg/ml in the presence of 20 μg/ml murine anti-CD 16 antibody 3G8 or mouse isotype control antibody. Following […] for 4 hours at 37° C., cells were centrifuged and the supernate was read on the Cobra II auto-gamma counter (Perkin Elmer) with a reading window of 240-400 KeV. The percent specific lysis was calculated as: (experimental release−spontaneous release)/(maximal release−spontaneous release)×100 where: (i) target cells with no effector cells and no antibody control for spontaneous release and (ii) target and effector cells in presence of 3% Lysol detergent control for maximal release. Percent specific lysis was plotted against antibody concentration and the data was analyzed by non-linear regression, sigmoidal dose response (variable slope) using GraphPad Prism™ 3.0 software (San Diego, Calif.).

A further experiment relates to SU-DHL-6 cells. As to the kind of experiment: ADCC fluorescence cytotoxicity assay, SU-DHL-6. It counts as cell-based, human. The following applies: target to effector ratio 1:50. The method, then:
as §1, §2, §3

B1: anti-CD70 human monoclonal antibody 69A7 (antibody, V domains shown)
VH: QVQLQESGPGLVKPSETLSLTCTVSGGSVSSDYYYWSWIRQPPGKGLEWLGYIYYSGSTNYNPSLKSRVTISVDTSKNQFSLKLRSVTTADTAVYYCARGDGDYGGNCFDYWGQGTLVTVSS
VL: EIVLTQSPATLSLSPGERATLSCRASQSVSSYLAWYQQKPGQAPRLLIFDASNRATGIPARFSGSGSGTDFTLTISSLEPEDFAVYYCQQRSNWPLTFGGGTKVEIK
notes: Human IgG from hybridoma; also called HuMAb 69A7; FITC-conjugated 69A7
The molecule B1 registered an EC50 in experiment [1] of 6.93 nM. In addition, in experiment [2], the “blocking of mouse anti-CD70 antibody BU-69 binding” value was “blocks binding”.

B2: 2H5 NF: 2H5 HuMAb lacking fucosyl residues, expressed in CHO cell line Ms704-PF (antibody, V domains shown)
VH: QVQLVESGGGVVQPGRSLRLSCAASGFTFSSYIMHWVRQAPGKGLEWVAVISYDGRNKYYADSVKGRFTISRDNSKNTLYLQMNSLRAEDTAVYYCARDTDGYDFDYWGQGTLVTVSS
VL: B1 VL with F49Y, S92T
In the case of B2, the “ADCC, % specific lysis of IM-9” value with IM-9 cells is on record as “increased percentage of specific lysis”. In the experiment on activated human B cells (ADCC of activated human B cells), the “potency relative to 2H5” value is “approximately 10 fold”. Besides, the “activated B cells bound” value in the experiment with activated human B cells (biotin conjugated 2H5 NF + streptavidin-APC, FACS) is listed as approximately 60%. Moreover, in the experiment on activated human B cells (effector to target 1:100 as printed, 4 hours), the “lysis of activated human B cells (ADCC)” value is “induced lysis”. The “ADCC, % specific lysis of SU-DHL-6” value in the experiment on SU-DHL-6 cells is “increased percentage of specific lysis”.
